Measured values taken from patent publication US20190185531A1 (published 2019).

T1: human Bfl-1 (c-myc-tagged) (human, UniProt Q16548 1-151)
T1 chain: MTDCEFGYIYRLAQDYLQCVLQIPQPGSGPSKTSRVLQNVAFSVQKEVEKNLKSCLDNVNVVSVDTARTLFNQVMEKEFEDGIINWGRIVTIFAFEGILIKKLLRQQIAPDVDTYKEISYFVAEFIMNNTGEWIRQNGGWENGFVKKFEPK

T2: human Mcl-1 (c-myc-tagged) (human, UniProt Q07820 172-327)
T2 chain: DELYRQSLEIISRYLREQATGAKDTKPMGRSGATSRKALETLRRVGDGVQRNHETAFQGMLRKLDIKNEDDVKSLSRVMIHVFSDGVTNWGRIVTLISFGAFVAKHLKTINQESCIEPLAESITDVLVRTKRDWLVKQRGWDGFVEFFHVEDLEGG

T3: Bcl-w (c-myc-tagged) (human, UniProt Q92843 1-164)
T3 chain: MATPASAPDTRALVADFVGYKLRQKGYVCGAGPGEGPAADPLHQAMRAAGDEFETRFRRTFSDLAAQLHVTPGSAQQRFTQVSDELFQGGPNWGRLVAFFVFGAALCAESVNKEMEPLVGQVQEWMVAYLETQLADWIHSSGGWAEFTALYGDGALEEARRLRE


Experiments:
[1] = molecular target: T1, human Bfl-1 (c-myc-tagged); assay: fluorescence anisotropy competition
[2] = molecular target: T1, human Bfl-1 (c-myc-tagged); assay: fluorescence anisotropy competition
[3] = molecular target: T2, human Mcl-1 (c-myc-tagged); assay: fluorescence anisotropy competition
Bcl-w (c-myc-tagged) = molecular target: T3, Bcl-w (c-myc-tagged); assay: fluorescence anisotropy competition
Bcl-xL (c-myc-tagged) = Bcl-xL (c-myc-tagged) (human, UniProt Q07817 1-209); assay: fluorescence anisotropy competition
Chain of Bcl-xL (c-myc-tagged) (Q07817 1-209): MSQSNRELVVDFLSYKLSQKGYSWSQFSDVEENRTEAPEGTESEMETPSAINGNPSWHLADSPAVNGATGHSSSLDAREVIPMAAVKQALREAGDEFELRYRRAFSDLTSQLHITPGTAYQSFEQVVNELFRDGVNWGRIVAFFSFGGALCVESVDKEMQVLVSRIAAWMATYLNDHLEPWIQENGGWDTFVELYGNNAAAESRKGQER

Bcl-2 (c-myc-tagged) = Bcl-2 (c-myc-tagged) (human, UniProt P10415 1-217); assay: fluorescence anisotropy competition
Chain of Bcl-2 (c-myc-tagged) (P10415 1-217): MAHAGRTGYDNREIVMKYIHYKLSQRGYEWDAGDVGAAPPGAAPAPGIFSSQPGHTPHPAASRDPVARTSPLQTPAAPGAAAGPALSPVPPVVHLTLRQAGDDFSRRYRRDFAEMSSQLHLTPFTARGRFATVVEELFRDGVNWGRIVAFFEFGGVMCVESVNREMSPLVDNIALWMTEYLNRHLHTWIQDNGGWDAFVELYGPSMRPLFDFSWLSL

[4] = molecular target: T1, human Bfl-1 (c-myc-tagged); assay: anisotropy

Binder	Ki [1] [nM]	Ki [2] [nM]	Ki [3] [nM]	Ki (Bcl-w (c-myc-tagged)) [nM]	Ki (Bcl-xL (c-myc-tagged)) [nM]	Ki (Bcl-2 (c-myc-tagged)) [nM]	Ki [4] [nM]
Ac-QWVREIAAQLRRMADDLNAQYER-NH2 [PUMA/FS2 chimeric peptide: PUMA with larger residues at positions A2 and E2]	2.1	–	–	–	–	–	–
Ac-QWAREIGAQLRRMADDLNAQYER-NH2 [Puma BH3 peptide (23 residues)]	4.8	5.1	2.7	6	–	–	–
Ac-QWVREIAAGLRLAADNVNAQLER-NH2 [FS1]	–	–	> 5000	8880	2720	6940	16.4
Ac-QWIREIAAGLRRFADILNAQVER-NH2 [FS3]	–	2.1	711	828	105	2360	–
Ac-QWVREIAAGLRRAADDVNAQVER-NH2 [FS2]	21	24.8	2580	7210	7340	2450	–
Ac-QWAREIGAGLRRAADDVNAQVER-NH2 [PUMA/FS2 chimeric peptide: PUMA with smaller residues at positions G2, D3, A4 and E4]	600	–	–	–	–	–	–
